“Also recorded” adds a separate entry of the source.
Tests used:
T862A HER2 receptor = target: T1, T862A HER2 receptor (Homo sapiens, UniProt P04626, T862A); assay: HER2 reporter cells transfected with linear expression cassette of T862A HER2, all-in-one method; assay type: cell-based
T1 construct: expressed in transfected cells; host or cells: HER2 reporter cells (clone #1)
Source text: T862A corresponds to a missense mutation of HER2, which changes Threonine (T) into Alanine (A) at amino acid position of 862. In order to functionally characterize this mutation, PCR-mediated overlapping extension was employed to construct a linear expression cassette of HER2 carrying this mutation. The linear expression cassette of mutant HER2 DNA was transfected into the reporter cells followed by treatment with NRG1 and its inhibitors using the “all-in-one” method. The luciferase reporter activity was measured 24 hours post-transfection.

HER2 and HER3 receptors [1] = target: T2, HER2 and HER3 receptors (Homo sapiens, UniProt P04626+P21860); assay: ERK-Luc / JNK-Luc / 6×JNK-Luc reporters in HEK293 cells with HER3 and HER2, treated with NRG1; assay type: cell-based
T2 construct: expressed in transfected cells; host or cells: HEK293
Description: (§1) In order to characterize the specificity of activation of ERK-Luc and JNK-Luc reporters upon treatment of HER3 ligand, ERK-Luc or JNK-Luc was co-transfected with expression plasmids of HER3 and wild-type or kinase-dead HER2 receptors into the HEK293 cells. After 24 hours, the transfected cells were treated with NRG1 (HER3 receptor ligand). The luciferase reporter activity of the transfected cells was measured by Nano-Glo® Luciferase Assay (Promega). In FIG. 13A, no difference in ERK-Luc reporter activity was found between the cells transfected with wild-type HER2 and kinase-dead HER2 after the treatment of NRG1. […] However, the activity of JNK-Luc reporter was reduced in the cells transfected with kinase-dead HER2 compared to the cells transfected with wild-type HER2 (FIG. 13B).
(§2) In order to examine the dose response of NRG1 in the activation of JNK-Luc reporters, JNK-Luc with expression plasmids of HER3 and wild-type HER2 receptors were co-transfected into the HEK293 cells. After 24 hours, the transfected cells were treated with a serial dilution of NRG1 (HER3 receptor ligand) for 6 hours. The luciferase reporter activity of the transfected cells was measured by Nano-Glo® Luciferase Assay (Promega).
(§3) In the previous example, the JNK-Luc reporter contained 3 copies of AP-1 binding site. We observed around 2.6 fold induction of reporter activity when the transfected cells were treated with 100 ng/ml of NRG1 (FIG. 14). In order to enhance the activation of reporter activity, the AP-1 binding site was increased from 3 copies to 6 copies. 6×JNK-Luc was co-transfected with expression plasmids of HER3 and wild-type HER2 receptors into the HEK293 cells. After 24 hours, the transfected cells were treated with 100 ng/ml of NRG1 (HER3 receptor ligand) for 6 hours. The luciferase reporter activity of the transfected cells was measured by Nano-Glo® Luciferase Assay (Promega). In FIG. 15, the 6×JNK-Luc reporter was activated by the treatment of NRG1 only when both HER2 and HER3 receptors were expressed (FIG. 15). Approximately a 4.2 fold induction of reporter activity was found.
(§4) For cell transfection experiments, HEK293 cells (ATCC) were plated at density of 4-8×10^4 cells per well (96-well plates) or 1-2×10^4 cells per well (384-well plates) in phenol red-free MEM containing 10% FBS and antibiotics. Either DNA plasmid or linear DNA was mixed with TransIT-293 transfection reagent (Mirus Bio LLC). Once cells were trypsinized, DNA transfection mix was added. The cells were then incubated for 24 or 48 hours.

HER2 and HER3 receptors [2] = assay: as above; assay type: cell-based, human; conditions: HER3 plus wild-type or kinase-dead HER2; HEK293
Description: as §1, §2, §3, §4

wild-type HER2 receptor = target: T3, wild-type HER2 receptor (Homo sapiens, UniProt P04626); assay: Clone #28 stable 6×JNK-Luc reporter cells with HER3 plasmid and HER2 linear expression cassette; assay type: cell-based; conditions: HER3 plasmid and HER2 linear expression DNA, 6 hours
T3 construct: expressed in transfected cells
Description: In the assay of the invention, expression of patient HER2 receptor is in the linear expression cassette format instead of plasmid DNA. Therefore, the clone #28 cells were transfected with HER3 expression plasmid and HER2 linear expression DNA. After 24 hours, the transfected cells were stimulated with a serial dilution of NRG1 for 6 hours. The luciferase reporter activity was measured. […] Therefore, this clone can be used to measure HER2 receptor activity by transfecting linear expression DNA of HER2.
In order to validate that the clone #28 cells was capable to measure the HER2 receptor activity, expression plasmids of HER3 were co-transfected with wild-type, constitutively active or kinase-dead HER2 receptors. […] The luciferase reporter activity of the transfected cells was measured by Nano-Glo® Luciferase Assay (Promega). […] However, no activation of reporter was detected when the cells were transfected with kinase-dead form of HER2 receptor.
In order to validate that the clone #28 reporter cells were capable of measuring the response of HER2 receptor to its inhibitors, these cells were first transfected with the HER2 linear expression DNA and HER3 expression plasmids followed by treatment of HER2 inhibitors for 6 hours in the presence of NRG1. The luciferase reporter activity of the treated cells was measured by Nano-Glo® Luciferase Assay (Promega). […]

L755S HER2 receptor = target: T4, L755S HER2 receptor (Homo sapiens, UniProt P04626, L755S); assay: HER2 reporter cells transfected with linear expression cassette of L755S HER2, all-in-one method; assay type: cell-based
T4 construct: expressed in transfected cells; host or cells: HER2 reporter cells (clone #1)
Source text: L755S corresponds to a missense mutation of HER2, which changes leucine (L) into serine (S) at amino acid position of 755. In order to functionally characterize this mutation, PCR-mediated overlapping extension was employed to construct linear expression cassette of HER2 carrying this mutation. The linear expression cassette of mutant HER2 DNA was first transfected into the reporter cells followed by treatment with NRG1 and its inhibitors using the “all-in-one” method. The luciferase reporter activity was measured 24 hours post-transfection.

- response of mutant HER2 reporter activity to ligand (T862A HER2 receptor): dose-dependent manner
- induction of 6×JNK-Luc reporter activity (HER2 and HER3 receptors [1]; 100 ng/ml of NRG1, 6 hours, HEK293 with HER2 and HER3): ~4.2 fold
- induction of JNK-Luc reporter activity (3 copies of AP-1 binding site) (HER2 and HER3 receptors [1]; 100 ng/ml of NRG1, HEK293 with HER2 and HER3): around 2.6 fold
- response of mutant HER2 reporter activity to ligand (L755S HER2 receptor): responds to treatment
Substance: NRG1: neuregulin-1, HER3 receptor ligand
- JNK-Luc reporter activation (HER2 and HER3 receptors [1]; HER3 plus HER2, HEK293, serial dilution 6 hours): activated JNK-Luc reporter in a HER2's kinase dependent manner; also recorded: dose dependent activation
- ERK-Luc reporter activation (HER2 and HER3 receptors [2]): effectively activated
- reporter activation by ligand (wild-type HER2 receptor): dose dependent manner; also recorded: activated

Source: patent US11319601B2, “Cell based assay” (Medical Diagnostic Laboratories, L.L.C., priority 2017, dated 2022)
